# Assay results reported in article PMC9388496.
# pKd: −log10 of the molar value.
# Key:
# [1] = target: FcRn coupled to the resin of the affinity chromatography column (UniProt P55899); experiment: analytical FcRn affinity chromatography; protein (1 mg/ml, alone or preincubated with cognate Ag) injected on a column with FcRn-coupled resin at pH 5.5 (20 mM MES, 140 mM NaCl), eluted by a linear pH gradient to pH 8.8 (20 mM Tris-HCl, 140 mM NaCl) over 110 min
# [2] = target: IgG1-derived Fc fragment (human); experiment: SPR; Biacore T200; IgG1, Fc or ABTs immobilised (~400 RU) on CM5 by amine coupling; monomeric His-tagged FcRn (2000-1.95 nM) injected at pH 5.5 (67 mM phosphate, 0.15 M NaCl, 0.005% Tween20), 50 μl/min; 1:1 Langmuir binding model
# [3] = target: adalimumab (Humira) (human); experiment: as above
# aflibercept (Eylea) = aflibercept (Eylea) (UniProt P17948); experiment: as above
# [4] = target: anti-NIP IgG1 (human | mouse); experiment: as above
# [5] = target: bevacizumab (Avastin) (human); experiment: as above
# etanercept (Enbrel) = etanercept (Enbrel) (UniProt P20333); experiment: as above
# [6] = target: infliximab (Remicade) (human); experiment: as above
# [7] = target: VEGF-165 (VEGF-A165, Sino Biological) (UniProt P15692); experiment: SPR (Biacore T200); settings: pH 5.5 vs 7.4, 0.15 M NaCl, 67 mM phosphate, the same buffer adjusted to pH 7.4 with 1 M NaOH
# [8] = target: Truncated monomeric His-tagged FcRn (UniProt P55899)
# [9] = target: Truncated monomeric His-tagged FcRn (UniProt P55899); remark: listed apart in the source
# VEGF-165 (VEGF-A165, Sino Biological), sequence (P15692 whole entry, the tested form may be a part): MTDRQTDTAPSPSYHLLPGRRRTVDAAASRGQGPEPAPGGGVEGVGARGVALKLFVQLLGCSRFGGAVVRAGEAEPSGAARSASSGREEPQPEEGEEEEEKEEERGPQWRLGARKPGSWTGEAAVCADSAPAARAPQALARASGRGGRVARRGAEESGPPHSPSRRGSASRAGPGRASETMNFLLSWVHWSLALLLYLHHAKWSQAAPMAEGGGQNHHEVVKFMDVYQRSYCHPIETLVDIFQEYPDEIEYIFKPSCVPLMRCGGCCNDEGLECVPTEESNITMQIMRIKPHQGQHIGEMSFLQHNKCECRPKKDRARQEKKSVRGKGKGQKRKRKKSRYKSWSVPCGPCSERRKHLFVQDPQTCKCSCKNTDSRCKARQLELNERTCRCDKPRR
# aflibercept (Eylea) (from UniProt P17948 129-229; P35968 1-764) (Fc fusion), sequence (P17948 other isoform, or with tags, fused parts or gaps): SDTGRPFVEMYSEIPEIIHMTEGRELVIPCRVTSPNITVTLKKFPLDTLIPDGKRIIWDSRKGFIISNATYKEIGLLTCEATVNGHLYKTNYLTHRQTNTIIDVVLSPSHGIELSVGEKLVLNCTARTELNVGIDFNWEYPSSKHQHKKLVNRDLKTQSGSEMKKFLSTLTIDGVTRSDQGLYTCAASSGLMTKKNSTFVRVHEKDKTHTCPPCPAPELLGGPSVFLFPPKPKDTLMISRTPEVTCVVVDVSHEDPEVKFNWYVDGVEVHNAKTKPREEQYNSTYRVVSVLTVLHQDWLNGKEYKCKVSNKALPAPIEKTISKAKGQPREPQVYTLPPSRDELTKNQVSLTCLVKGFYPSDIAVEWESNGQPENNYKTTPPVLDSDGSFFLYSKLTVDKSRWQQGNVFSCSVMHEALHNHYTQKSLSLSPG
substance,measurement,setting,value
bevacizumab (Avastin) (antibody),elution peak pH,[1],7.2 pH
Truncated monomeric His-tagged FcRn (from UniProt P55899 24-365) (receptor),pKd,[2],6.64
same,pKd,[3],6.37
same,koff,[3],0.001 s⁻¹
same,kon,[3],42000 M⁻¹ s⁻¹
same,pKd,aflibercept (Eylea),6.46
same,koff,aflibercept (Eylea),0.001 s⁻¹
same,kon,aflibercept (Eylea),30000 M⁻¹ s⁻¹
same,pKd,[4],6.48
same,pKd,[5],6.42
same,koff,[5],0.001 s⁻¹
same,kon,[5],32000 M⁻¹ s⁻¹
same,pKd,etanercept (Enbrel),6.42
same,koff,etanercept (Enbrel),0.001 s⁻¹
same,kon,etanercept (Enbrel),31000 M⁻¹ s⁻¹
same,pKd,[6],6.51
same,koff,[6],0.002 s⁻¹
same,kon,[6],35000 M⁻¹ s⁻¹
infliximab (Remicade) (antibody),elution peak pH,[1],7.15 pH
adalimumab (Humira) (antibody),elution peak pH,[1],7.21 pH
aflibercept (Eylea) (from UniProt P17948 129-229; P35968 1-764) (Fc fusion),elution peak pH,[1],7.01 pH
"Aflibercept (Eylea), VEGFR1 D2-VEGFR2 D3-IgG1 Fc fusion","on-rate (sensorgram comparison), fold change pH 5.5 over pH 7.4",[7],acidic pH enhanced the on-rate more than 5-fold
etanercept (Enbrel) (from UniProt P20333 23-257) (Fc fusion),elution peak pH,[1],6.88 pH
anti-NIP IgG1 Fc-engineered variant M252Y/S254T/T256E/H433K/N434F (antibody),"cellular uptake in HERA (HMEC-1-FcRn cells) after 2 h incubation, relative to non-engineered anti-NIP IgG1",[8],15 fold
IgG1-derived Fc fragment (domain or fragment),"reduction of the recycling of 400 nM anti-NIP IgG1 (m4) by titrated Fc fragment (6400-1 nM) in HERA, HMEC-1-FcRn cells preloaded with IVIg, uptake at pH 6.0",[9],32.9 nM
same,elution peak pH,[1],7.13 pH
Bevacizumab (Avastin),"on-rate (sensorgram comparison), fold change pH 5.5 over pH 7.4",[7],acidic pH enhanced the on-rate more than 5-fold
